From publication PMC8616066
pKd: −log10 of the molar value.

Assays:
[1] = biological target: fluorescent tagged HER2 (human) (UniProt P04626); experiment: MST; Monolith NT.115; fluorescent tagged HER2, titration of purified GST fusion proteins
[2] = biological target: eGFP-MUC4β_(ΔEGF2) (human); experiment: MST; Monolith NT.115; native fluorescence of the eGFP fusion proteins followed in cell lysate, titration against recombinant HER2-Fc; triplicate with two distinct cell lysates (n = 6)

Substance	pKd [1]	pKd [2]
GST-MUC4_(EGF1) (domain or fragment)	7.12	
GST-MUC4_(EGF2) (domain or fragment)	6.62	
recombinant HER2-Fc (from UniProt P04626 23-652) (Fc fusion)		7.01
